In experiment [1] the target is Human FcγRI (Acrobiosystems, Cat# FCA-H52H2) (human, UniProt P12314 16-288). As to the kind of experiment: ELISA, human FcγRI coated, detection with anti-human F(ab')2-HRP.
In experiment [2] the target is T1, human CTLA-4 (Acrobiosystems, Cat# CT4-H5229) (human, UniProt P16410 36-161).
T1 sequence (looked up): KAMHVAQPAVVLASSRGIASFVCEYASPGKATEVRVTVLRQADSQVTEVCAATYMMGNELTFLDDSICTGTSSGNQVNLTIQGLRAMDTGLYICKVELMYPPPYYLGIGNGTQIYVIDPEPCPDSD
As to the kind of experiment: ELISA, human CTLA-4 coated at 25 ng/well.

In experiment [3] the target is T2, Human ICOS (Acrobiosystems, Cat# ICS-H5250) (human, UniProt Q9Y6W8 21-140, limits assumed).
T2 sequence (looked up): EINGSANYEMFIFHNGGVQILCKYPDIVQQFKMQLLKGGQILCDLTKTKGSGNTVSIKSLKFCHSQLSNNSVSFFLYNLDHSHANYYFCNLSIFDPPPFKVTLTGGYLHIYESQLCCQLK
Description: ELISA, human ICOS coated at 25 ng/well. On the technique in general: An ELISA detects its analyte on a solid surface through an enzyme-linked reagent.

Experiment [4] has as its target T3, human BTLA (Acrobiosystems, Cat# BTA-H52E0) (human, UniProt Q7Z6A9 31-150, limits assumed).
T3 sequence (looked up): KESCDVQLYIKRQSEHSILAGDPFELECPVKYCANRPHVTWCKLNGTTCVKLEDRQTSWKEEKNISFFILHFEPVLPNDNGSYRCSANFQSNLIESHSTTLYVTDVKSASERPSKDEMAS
Description: ELISA, human BTLA coated at 25 ng/well.

The target in experiment [5] is T4, mouse PD-1 protein (SINO Biological Inc., Cat#50124-M08H) (mouse, UniProt Q02242 25-167).
T4 sequence (looked up): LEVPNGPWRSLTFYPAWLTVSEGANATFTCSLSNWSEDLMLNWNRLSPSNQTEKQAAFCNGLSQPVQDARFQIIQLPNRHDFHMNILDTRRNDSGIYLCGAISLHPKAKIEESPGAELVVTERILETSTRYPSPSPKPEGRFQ
Description: ELISA, mouse PD-1 coated at 25 ng/well.

Experiment [6] has as its target T5, cynomolgus PD-1 expressed on stimulated cynomolgus PBMCs (cynomolgus monkey, UniProt B0LAJ3 25-288).
T5 construct: also called monkey PD-1; PD-1 expressed on cynomolgus monkey PBMCs
Description: flow cytometry on cynomolgus PBMCs after SEB stimulation, MFI.

Experiment [7] has as its target T6, Human PD-1 (prepared in Leadsbiolabs, amino acid sequence of NP_005009.2 set forth in SEQ ID NO.: 66) (human, UniProt Q15116 25-170, limits assumed). As to the kind of experiment: blocking ELISA, human PD-1 coated, blocked ligand human PD-L1-mouse Fc-tag.
In experiment [8] the target is T6, Human PD-1 (prepared in Leadsbiolabs, …). Described as above. This is another data set of the same source.
The target in experiment [9] is T7, human PD-1 of SEQ ID NO.: 66 stably expressed on transfected cells (CHO-K1-PD-1 cells; Jurkat-NFAT-PD1 cells) (human, UniProt Q15116 25-288).
T7 construct: also called cell surface PD-1; PD-1 expressed on CHO-K1-PD-1 cells
Description: flow cytometry on CHO-K1 cells stably expressing human PD-1, MFI. (In flow cytometry, cells or beads pass a laser one at a time.)

The target in experiment [10] is T8, Human PD-1 protein (SINO Biological Inc., Cat#10377-H08H-100) (human, UniProt Q15116 25-167).
T8 construct: Bought protein
As to the kind of experiment: ELISA, human PD-1 coated at 25 ng/well, detection with anti-human F(ab')2-HRP.

For experiment [11], the target named is T6, Human PD-1 (prepared in Leadsbiolabs, …). As to the kind of experiment: blocking ELISA, human PD-1 coated, blocked ligand human PD-L1-mouse Fc-tag. This is another data set of the same source.
The target is the same in experiment [12]. The description is as above. The source holds these as a separate data set.
Experiment [13] has as its target T8, Human PD-1 protein (SINO Biological …). Description: ELISA, human PD-1 coated at 25 ng/well, detection with anti-human F(ab')2-HRP. This is another data set of the same source.
For experiment [14] the target is unchanged. Described as above. This is another data set of the same source.
The target is the same in experiment [15]. The description is as above. This is another data set of the same source.
In experiment [16] the target is T6, Human PD-1 (prepared in Leadsbiolabs, …). Description: blocking ELISA, human PD-1 coated, blocked ligand human PD-L1-mouse Fc-tag; x axis printed as log values -1 to 2.
For experiment [17] the target is unchanged. As to the kind of experiment: blocking ELISA, human PD-1 coated, blocked ligand human PD-L1-mouse Fc-tag; fit value printed in the table although the control's curve does not fall (see non_binding).
For experiment [18], the target named is T8, Human PD-1 protein (SINO Biological …). Description: ELISA, human PD-1 coated at 25 ng/well.
In experiment [19] the target is T9, cynomolgus PD-1-his protein (Acrobiosystems, Cat# PD1-05223) (cynomolgus monkey, UniProt B0LAJ3 25-170).
T9 construct: also called cynoPD-1-his; cynomolgus PD-1 protein
Description: ELISA, cynomolgus PD-1 coated at 25 ng/well.

Like-named read-outs stand apart in the source and are kept apart here.

T7 sequence (Q15116 25-288 limits assumed): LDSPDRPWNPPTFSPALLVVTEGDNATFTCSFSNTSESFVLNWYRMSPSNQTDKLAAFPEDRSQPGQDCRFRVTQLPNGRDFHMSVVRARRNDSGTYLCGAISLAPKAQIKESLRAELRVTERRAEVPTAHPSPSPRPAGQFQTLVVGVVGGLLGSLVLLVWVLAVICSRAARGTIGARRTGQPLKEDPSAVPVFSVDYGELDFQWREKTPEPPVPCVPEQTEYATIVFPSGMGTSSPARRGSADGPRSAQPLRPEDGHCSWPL
T6 sequence (Q15116 25-170 limits assumed): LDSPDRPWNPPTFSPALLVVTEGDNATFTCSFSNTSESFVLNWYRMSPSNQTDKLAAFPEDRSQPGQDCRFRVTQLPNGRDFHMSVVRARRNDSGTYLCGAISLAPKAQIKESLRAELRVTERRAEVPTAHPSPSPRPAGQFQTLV
T8 sequence (Q15116 25-167 limits assumed): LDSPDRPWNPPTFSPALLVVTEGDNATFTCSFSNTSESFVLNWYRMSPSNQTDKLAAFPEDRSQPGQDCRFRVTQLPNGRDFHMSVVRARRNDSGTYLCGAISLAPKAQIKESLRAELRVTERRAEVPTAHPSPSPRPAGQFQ
Chain of Human FcγRI (Acrobiosystems, Cat# FCA-H52H2) (P12314 16-288 limits assumed): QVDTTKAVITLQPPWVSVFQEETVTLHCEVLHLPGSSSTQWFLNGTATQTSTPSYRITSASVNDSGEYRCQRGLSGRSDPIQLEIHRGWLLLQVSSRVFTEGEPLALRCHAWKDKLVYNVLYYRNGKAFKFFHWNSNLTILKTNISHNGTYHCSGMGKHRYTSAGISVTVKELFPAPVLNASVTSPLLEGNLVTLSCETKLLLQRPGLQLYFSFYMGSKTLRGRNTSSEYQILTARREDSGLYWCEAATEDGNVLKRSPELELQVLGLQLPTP
T9 sequence (B0LAJ3 entry or part of it limits assumed): as the sequence (Q15116 25-170 limits assumed) above, with D2E, P10A, V19L, T35A, Q75R, T144A counted along it
T5 sequence (B0LAJ3 entry or part of it limits assumed): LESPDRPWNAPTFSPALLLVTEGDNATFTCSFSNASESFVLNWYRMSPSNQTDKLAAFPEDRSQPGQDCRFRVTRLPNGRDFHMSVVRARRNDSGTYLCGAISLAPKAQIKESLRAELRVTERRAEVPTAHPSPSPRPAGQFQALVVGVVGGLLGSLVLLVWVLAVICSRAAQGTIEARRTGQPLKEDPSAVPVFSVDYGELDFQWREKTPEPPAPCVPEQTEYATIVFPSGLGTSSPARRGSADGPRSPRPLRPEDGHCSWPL

B1: Rituximab analog (antibody, human IgG1, kappa)
heavy: not shown
light: QIVLSQSPAILSASPGEKVTMTCRASSSVSYIHWFQQKPGSSPKPWIYATSNLASGVPVRFSGSGSGTSYSLTISRVEAEDAATYYCQQWTSNPPTFGGGTKLEIKRTVAAPSVFIFPPSDEQLKSGTASVVCLLNNFYPREAKVQWKVDNALQSGNSQESVTEQDSKDSTYSLSSTLTLSKADYEKHKVYACEVTHQGLSSPVTKSFNRGEC
notes: Wild type IgG1 heavy chain constant region; also called positive control of the FcγRI ELISA
B1: the binding result in experiment [1] is on record as “binds”.

B2: Nivolumab analog (antibody, human IgG4 S228P, kappa, V domains shown)
VH: QVQLVESGGGVVQPGRSLRLDCKASGITFSNSGMHWVRQAPGKGLEWVAVIWYDGSKRYYADSVKGRFTISRDNSKNTLFLQMNSLRAEDTAVYYCATNDDYWGQGTLVTVSS
VL: EIVLTQSPATLSLSPGERATLSCRASQSVSSYLAWYQQKPGQAPRLLIYDASNRATGIPARFSGSGSGTDFTLTISSLEPEDFAVYYCQQSSNWPRTFGQGTKVEIKR
notes: also called positive control
A word on the EC50: it is the concentration at which the effect is half-maximal. On to B2, for which the binding result in experiment [2], in [3], in experiment [4] and in experiment [5] was “no binding (tested: about 2 nM)” throughout. In addition, the midpoint of the response in [6], the EC50, lay at 0.692 nM.

B3: anti-PD-1 antibody 21F12 (mutant IgG1 constant region of SEQ ID NO: 18) (antibody, V domains shown)
VH: QMQLVQSGAEVKKPGASVKLSCKASGYIFTSYYIHWVRQAPGQGLEWVGVINPSGGSTTYAQKFQGRVTMTRDTSISTAYMELSRLRSDDTVVYYCARGSYSSGWDYYYYYGMDVWGKGTLVTVSS
VL: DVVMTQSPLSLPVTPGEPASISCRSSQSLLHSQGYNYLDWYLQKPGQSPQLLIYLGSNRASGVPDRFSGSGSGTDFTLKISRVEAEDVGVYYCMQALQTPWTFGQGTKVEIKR
notes: Full length IgG expressed in CHO-S cells
For orientation: IC50 means the concentration that inhibits the measured activity by half. Low readings indicate greater potency in that assay, high ones weaker potency in that assay. As to B3, the IC50 was found to be 0.834 nM in experiment [7], 0.913 nM in [8], 0.716 nM in experiment [11] and 0.684 nM in experiment [12]. Moreover, the EC50 stood at 1.06 nM in experiment [9] and 0.0447 nM in experiment [10].

B4: anti-PD-1 antibody 21F12-1C4 (mutant IgG1 constant region of SEQ ID NO: 18) (antibody, V domains shown)
VH: QMQLVQSGAEVKKPGASVKLSCKASDYIFTSYYIHWVRQAPGQGLEWVGVINPSGGSTTYAQKFQGRVTMTRDTSISTAYMELSRLRSDDTVVYYCARGSYSSGWDYYYYYGMDVWGKGTLVTVSS
VL: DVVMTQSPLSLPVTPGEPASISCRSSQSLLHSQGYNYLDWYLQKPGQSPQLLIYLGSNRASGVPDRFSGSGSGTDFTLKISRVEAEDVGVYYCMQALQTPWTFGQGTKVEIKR
notes: mutant IgG1
As for B4, it took 0.479 nM to reach a half-maximal effect in [9] (EC50). The same molecule came in with a 50% inhibitory concentration (IC50) in experiment [11] of 0.558 nM.

B5: anti-PD-1 antibody 21F12-1E10 (mutant IgG1 constant region of SEQ ID NO: 18) (antibody, V domains shown)
VH: QMQLVQSGAEVKKPGASVKLSCKASGYPFTSYYIHWVRQAPGQGLEWVGVINPSGGSTTYAQKFQGRVTMTRDTSISTAYMELSRLRSDDTVVYYCARGSYSSGWDYYYYYGMDVWGKGTLVTVSS
VL: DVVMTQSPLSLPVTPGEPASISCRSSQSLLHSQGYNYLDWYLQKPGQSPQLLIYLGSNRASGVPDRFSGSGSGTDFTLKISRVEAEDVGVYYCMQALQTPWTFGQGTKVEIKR
notes: mutant IgG1
Consider B5, for which the concentration giving a half-maximal response (EC50) in experiment [13] came out at 0.111 nM; in experiment [9], 0.464 nM. This molecule registered an IC50 in experiment [12] of 0.482 nM.

B6: anti-PD-1 antibody 21F12-2E1 (mutant IgG1 constant region of SEQ ID NO: 18) (antibody, V domains shown)
VH: QMQLVQSGAEVKKPGASVKLSCKASEYIFQSYYIHWVRQAPGQGLEWVGVINPSGGSTTYAQKFQGRVTMTRDTSISTAYMELSRLRSDDTVVYYCARGSYSSGWDYYYYYGMDVWGKGTLVTVSS
VL: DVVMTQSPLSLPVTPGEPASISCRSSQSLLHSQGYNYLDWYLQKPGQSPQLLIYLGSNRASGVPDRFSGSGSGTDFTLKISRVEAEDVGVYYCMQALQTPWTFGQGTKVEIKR
notes: mutant IgG1
For B6, the 50% effective concentration (EC50) in [14] is 0.136 nM. This molecule also registered an IC50 in experiment [8] of 1.1 nM.

B7: anti-PD-1 antibody 21F12-1B12 (mutant IgG1 constant region of SEQ ID NO: 18) (antibody, V domains shown)
VH: QMQLVQSGAEVKKPGASVKLSCKASGYPFQSYYIHWVRQAPGQGLEWVGVINPSGGSTTYAQKFQGRVTMTRDTSISTAYMELSRLRSDDTVVYYCARGSYSSGWDYYYYYGMDVWGKGTLVTVSS
VL: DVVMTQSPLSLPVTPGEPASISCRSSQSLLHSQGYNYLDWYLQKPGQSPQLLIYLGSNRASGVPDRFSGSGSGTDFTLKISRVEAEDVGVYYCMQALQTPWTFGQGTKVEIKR
notes: mutant IgG1
Consider B7, for which the values for the EC50 in experiment [14], in experiment [15] and in experiment [9] were 0.102 nM, 0.0936 nM and 0.257 nM, respectively. Further, the figures for the half-inhibitory concentration (IC50) in [8] and in experiment [16] were 0.623 nM and 0.725 nM, respectively.

B8: anti-PD-1 antibody 21F12-2H7 (mutant IgG1 constant region of SEQ ID NO: 18) (antibody, V domains shown)
VH: QMQLVQSGAEVKKPGASVKLSCKASQYIFQSYYIHWVRQAPGQGLEWVGVINPSGGSTTYAQKFQGRVTMTRDTSISTAYMELSRLRSDDTVVYYCARGSYSSGWDYYYYYGMDVWGKGTLVTVSS
VL: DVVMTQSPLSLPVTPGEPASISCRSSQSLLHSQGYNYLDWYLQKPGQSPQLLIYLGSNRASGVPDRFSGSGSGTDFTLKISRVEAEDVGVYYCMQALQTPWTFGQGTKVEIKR
notes: mutant IgG1
Consider B8, for which a half-maximal response in experiment [14] (EC50) required 0.101 nM. This molecule gave an IC50 in [8] of 1.15 nM.

B9: anti-PD-1 antibody 21F12-3G1 (mutant IgG1 constant region of SEQ ID NO: 18) (antibody, V domains shown)
VH: QMQLVQSGAEVKKPGASVKLSCKASGYIFTSYYIHWVRQAPGQGLEWVGVINPSGGSTTYAQKFQGRVTMTRDTSISTAYMELSRLRSDDTVVYYCARGSYNSGWDYYYYYGMDVWGKGTLVTVSS
VL: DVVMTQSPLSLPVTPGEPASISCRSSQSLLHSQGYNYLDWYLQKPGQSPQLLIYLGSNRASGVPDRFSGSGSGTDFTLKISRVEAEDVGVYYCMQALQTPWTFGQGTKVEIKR
notes: mutant IgG1
In turn, B9 gave a concentration for half-maximal inhibition (IC50) in experiment [7] of 0.699 nM. Moreover, the figures for the EC50 in [13] and in experiment [9] were 0.108 nM and 0.334 nM, respectively.

B10: anti-PD-1 antibody 21F12-1E11 (mutant IgG1 constant region of SEQ ID NO: 18) (antibody, V domains shown)
VH: QMQLVQSGAEVKKPGASVKLSCKASGYFFQSYYIHWVRQAPGQGLEWVGVINPSGGSTTYAQKFQGRVTMTRDTSISTAYMELSRLRSDDTVVYYCARGSYSSGWDYYYYYGMDVWGKGTLVTVSS
VL: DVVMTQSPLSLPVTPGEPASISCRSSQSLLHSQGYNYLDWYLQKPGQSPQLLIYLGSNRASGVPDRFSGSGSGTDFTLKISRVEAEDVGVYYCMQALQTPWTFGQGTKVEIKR
notes: mutant IgG1
As to B10, the EC50 in experiment [14] came out at 0.0936 nM; in experiment [13], 0.0914 nM. In experiment [8], this molecule gave an IC50 of 0.653 nM.

B11: IgG Control (antibody, V domains shown)
VH: QVQLQESGGGVVRPGGSLRLSCAASGFTFDDYGMSWVRQAPGKGLEWVSGINWSGGSTYYADSVKGRSTISRDNSKNTLYLQMNSLRAEDTAVYYCATGGYWGQGTLVTVSS
VL: not shown
notes: also called human IgG control
Turning to B11, the IC50 in experiment [17] came out at 3.77 nM. For the same molecule, the binding result in [18] and in experiment [19] was “no binding (tested: about 2 nM)” in each case.

Values taken from patent US20190352402A1 (NANJING LEADS BIOLABS, published 2019).
